Switch fluorescence ratio data for 120 sequences are collected here from the supplement of paper PMC10126150.

± gives the standard deviation of the averaged measurements.

For the data set, the system named is ATP. As to the kind of experiment: switch fluorescence ratio, 500 uM ATP over buffer (Cy3 cluster intensity, sum of 5 cycles each) (fold (ratio)); higher = stronger signal-on switching upon ATP binding; sequences stand for … in TCGTCGGCAGCGTCAGATGTGTATAAGAGACAGTTTTTTTTTTTTTTTTTTTTTTTTT…TC. Conditions: aptamer strand: ATP DNA aptamer (quencher-CACCTGGGGGAGTATTGCGGAGGAAGG + anchor), 100 nM annealed; ATP concentration: 500 uM. The method in brief: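 Values give the fluorescence ratio for each switch-domain sequence, averaged from per-cluster ratios of summed target-cycle to summed buffer-cycle Cy3 intensity. The Cy3-labelled switching-strand clusters sat on a modified Illumina MiSeq flow-cell, were annealed to 100 nM quencher-labelled ATP aptamer, and were imaged in selection buffer, then after 15 min with 500 uM ATP at 22 °C. Five cycles ran with NaOH stripping and re-annealing between them, and clusters outside 100-1000 RFU were excluded.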
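Note: ATP exposure 15 min at 22 °C before imaging.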

As to TTGTGGATAA, the switch fluorescence ratio is 1.01 ± 0.0094. For ATTTGCAACT the value was 0.994 ± 0.026; for ACCGCGTTTT, 1.03 ± 0.041; for TAGGCTCGG, 1.014 ± 0.0019. As for ACCCTAGGGT, the figure is 0.994 ± 0.035; as for GGGCGAAATG, 1.32 ± 0.28; as for GCGGAGGGGG, 1 ± 0.035.

In the case of ATCACCGCGC, the switch fluorescence ratio amounted to 1.59 ± 0.093. For GAGGCGGGTG the value was 1.01 ± 0.013; for TTAAACAAGC, 0.998 ± 0.017. For ATTCAGAAGG the value was 1.01 ± 0.041; for GAATCAGTGT, 1 ± 0.022; for TGACGGGAGG, 0.991 ± 0.04. As for CGGGTAGCTT, the figure is 1.017 ± 0.0093; as for CGTTCAGTTT, 0.9929 ± 0.0028.

Consider TGGCGCATTC, for which the switch fluorescence ratio amounted to 1.3 ± 0.15. As for TCAGTTGGAA, the figure is 0.977 ± 0.039. For AATGGGCAGT the value was 0.989 ± 0.029; for AGAGGGCGGT, 1.02 ± 0.024. For the sequence GTCAGTGGGC, the switch fluorescence ratio came to 0.998 ± 0.0052. As for TCTAGAATGG, the figure is 0.982 ± 0.033. For TTTTAGGTCC the value was 0.977 ± 0.023; for AAGAAATAAA, 0.9744 ± 0.0095.

GGGACTGGGA: the switch fluorescence ratio was 1 ± 0.031. On to ATGTGGTATG, for which the switch fluorescence ratio was 0.984 ± 0.031. For GCAAAGAGGG the value was 1.04 ± 0.012. For AAAAAAAAGA the value was 0.996 ± 0.048; for TCGGAAGGG, 0.988 ± 0.037; for GTTTTGGGAA, 1.02 ± 0.026. As to TGGCGCTTGT, the switch fluorescence ratio was 0.978 ± 0.028. As for TTTGAGGTCG, the figure is 1.06 ± 0.063; as for TCTTATAAGC, 0.984 ± 0.028; as for GTATTGATTT, 0.9769 ± 0.0055. For CAGTAAAGGA the value was 1.02 ± 0.053.

Consider GTTTAGAGTG, for which the switch fluorescence ratio amounted to 0.944 ± 0.033.

Regarding CCAGTGTAGA, the switch fluorescence ratio is 1.01 ± 0.0052. For TCCATTTTGG the value was 0.998 ± 0.039. For AATAAACAGC the value was 1.006 ± 0.0078; for TATGAGTAGG, 0.995 ± 0.015. In the case of AATGCGTGCG, the switch fluorescence ratio is 1.04 ± 0.023. Turning to AATGGGAGGG, the switch fluorescence ratio came out at 1 ± 0.032. As for AAAATAAGGC, the switch fluorescence ratio is 0.981 ± 0.03. For ATTTGGGGGT the value was 0.997 ± 0.023; for ATCATACGGA, 1.034 ± 0.0088; for AATAAGTGGT, 0.989 ± 0.023. For GGAGTTGGAT the value was 0.98205 ± 0.00015; for TAGGTAAGGT, 1.03 ± 0.029; for GGTGAGCTAG, 0.9866 ± 0.0034. As to AGGTGTTGCG, the switch fluorescence ratio worked out at 1.016 ± 0.0056. For AATTCTGGTT the value was 0.9664 ± 0.0018; for TCTGGGCCGG, 0.989 ± 0.034; for AAGAATATGT, 0.9756 ± 0.008.

As for CGAGGGGGGA, the switch fluorescence ratio amounted to 0.996 ± 0.028. As for TGCTGTCGGC, the figure is 1.03 ± 0.029; as for TCCGGCTTTG, 0.953 ± 0.075; as for TTTGATGGGT, 0.993 ± 0.048. For GGCATGTGCG the value was 1.02 ± 0.031; for AATCGTAGTG, 0.9895 ± 0.0071. As for GGTTGTGTTT, the figure is 0.991 ± 0.003; as for TCTGAGCAAG, 2.47 ± 0.25.

As to TTGTTTCAGT, the switch fluorescence ratio worked out at 0.997 ± 0.028. As to TTAGGGTCAT, the switch fluorescence ratio was 0.979 ± 0.012.

Regarding TGCAGGGTGG, the switch fluorescence ratio was 1.05 ± 0.051. Consider TGTTAACGGT, for which the switch fluorescence ratio was determined as 0.991 ± 0.071. On to TATAGTGGAG, for which the switch fluorescence ratio was determined as 1.024 ± 0.0069. For GGCTTCACGA the value was 1.07 ± 0.014; for CTCGGGGGCT, 0.98 ± 0.027; for CAGGGATTAG, 1.01 ± 0.044. As for GGCGCAACAG, the switch fluorescence ratio is 1.44 ± 0.14. For GGGGGCGCAT the value was 0.96 ± 0.066; for ATCGCATTG, 1.24 ± 0.34; for TAAAAGGGGA, 0.982 ± 0.029.

Regarding TCTGGATCA, the switch fluorescence ratio is 1.0079 ± 0.00014. For GGGTTGTCCG the value was 1.05 ± 0.07; for TTTTATGCCC, 0.9772 ± 0.0032; for TTTGTCTTTT, 1.02 ± 0.045. For CTTGGGGGCG the value was 1.01 ± 0.056. For the sequence CATCTGTTGT, the switch fluorescence ratio came out at 0.9856 ± 0.0092. As for AGTAGTATCT, the figure is 0.981 ± 0.03; as for ATTTAGCGTC, 0.99 ± 0.016; as for TTTGAGAATC, 0.977 ± 0.017. Consider TGGAGTGTTT, for which the switch fluorescence ratio stood at 0.94 ± 0.021. As for TTCATCTCGC, the figure is 1.1 ± 0.1; as for TGTTATTCAT, 0.985 ± 0.041; as for TAGTGGAAAA, 1.02 ± 0.077. As for GGGGGTACTG, the figure is 0.965 ± 0.028; as for TGGAAGGGGG, 1.01 ± 0.051. For CTCTGGACAG the value was 0.9718 ± 0.0089; for AAGGAAGAGG, 0.984 ± 0.064; for GGAAATGAAT, 1.02 ± 0.029. As to GAATTTTCG, the switch fluorescence ratio is 1.009 ± 0.0097. For ATGTTGGGCA the value was 1.01 ± 0.028; for CAGCGTTCAC, 1.054 ± 0.0092. As for TGGTTTGGGC, the figure is 0.984 ± 0.034.

In the case of CAAAAAGCAC, the switch fluorescence ratio turned out to be 1.06 ± 0.036. As for TGACCCTTAG, the figure is 0.987 ± 0.025. For ATAGCAGGGT the value was 1 ± 0.012; for AATAGTTGGG, 1.03 ± 0.015; for TGCGGATGGT, 0.98 ± 0.016. As for GCTGGGCCGA, the figure is 1.01 ± 0.036; as for TTTTTGACGG, 1 ± 0.033; as for GAGGGGTGTG, 0.993 ± 0.029. For GCCGCTGATG, the switch fluorescence ratio was found to be 0.982 ± 0.028. GAAGAAAATT: the switch fluorescence ratio came to 1.01 ± 0.014. As for CGGGGATGGG, the figure is 0.992 ± 0.022; as for CCTTGGTCTT, 0.9979 ± 0.009. With GGATCTTGGC, the switch fluorescence ratio was 1.02 ± 0.025.

As to GTATAAGGAT, the switch fluorescence ratio is 1.03 ± 0.019. As for AATACTGAGC, the figure is 1.04 ± 0.053; as for ATGGACAATA, 1.07 ± 0.026. For ATCGTTCAAT the value was 0.9983 ± 0.0046; for ATAATTAAGA, 0.992 ± 0.014; for TTTCTTTCAA, 1.01 ± 0.021.

Regarding ACTGGGGTTA, the switch fluorescence ratio was 0.9786 ± 0.0021. For CGAGGAAAGG the value was 0.9865 ± 0.0089; for TACGGTAGCT, 1.12 ± 0.051; for TGACACGGTT, 0.9814 ± 0.0058. For TATTGAGCTG the value was 0.9775 ± 0.0087; for TTTTCCCTGC, 1.24 ± 0.11; for ACTTTGAATC, 0.998 ± 0.053.
